Experimental data: publication PMC9482650, “Quantitative fragmentomics allow affinity mapping of interactomes” (Nature Communications, 2022)

Tests used:
Experiment in all cases: holdup assay
Set-up in all cases: key: below the threshold = too weak to quantify, mostly under pKd 3.1 to 4
Details in all cases: plain residues with an end cap or a label only (N-terminal biotin on a linker: ado-ado)
[1] = target: T1, DFNB31_2, Q9P202
T1 sequence (Q9P202 274-371, limits assumed, looked up): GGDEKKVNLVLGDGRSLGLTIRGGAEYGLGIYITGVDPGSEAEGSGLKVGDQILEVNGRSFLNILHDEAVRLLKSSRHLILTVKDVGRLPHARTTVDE

[2] = target: T2, DFNB31_3, Q9P202
T2 sequence (Q9P202 811-907, limits assumed, looked up): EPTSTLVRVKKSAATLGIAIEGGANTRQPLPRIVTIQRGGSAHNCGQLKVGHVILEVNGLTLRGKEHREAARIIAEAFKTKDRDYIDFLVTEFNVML

[3] = target: T3, DLG3_2, Q92796
T3 sequence (Q92796 221-321, limits assumed, looked up): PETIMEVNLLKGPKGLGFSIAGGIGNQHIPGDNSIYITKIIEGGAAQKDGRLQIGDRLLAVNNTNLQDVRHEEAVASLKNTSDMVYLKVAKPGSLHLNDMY

[4] = target: T4, DLG3_3, Q92796
T4 sequence (Q92796 374-475, limits assumed, looked up): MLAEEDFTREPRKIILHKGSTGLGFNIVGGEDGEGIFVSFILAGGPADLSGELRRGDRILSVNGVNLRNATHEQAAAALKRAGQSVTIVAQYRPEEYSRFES

[5] = target: DLG4_3, P78352
Chain of DLG4_3, P78352 (P78352 306-403): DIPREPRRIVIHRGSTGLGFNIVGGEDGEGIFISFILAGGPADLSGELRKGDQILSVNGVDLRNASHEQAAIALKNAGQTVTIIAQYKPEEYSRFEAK

[6] = target: FRMPD2_3, Q68DX3
Chain of FRMPD2_3, Q68DX3 (Q68DX3 1073-1166): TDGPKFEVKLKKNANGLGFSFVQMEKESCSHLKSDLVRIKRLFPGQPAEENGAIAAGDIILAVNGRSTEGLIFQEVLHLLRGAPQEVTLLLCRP

[7] = target: GRIP2_4, Q9C0E4
Chain of GRIP2_4, Q9C0E4 (Q9C0E4 446-548): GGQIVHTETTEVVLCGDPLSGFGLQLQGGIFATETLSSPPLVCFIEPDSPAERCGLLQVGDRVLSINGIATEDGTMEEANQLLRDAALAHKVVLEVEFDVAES

[8] = target: HTRA2, O43464
Chain of HTRA2, O43464 (O43464 355-458): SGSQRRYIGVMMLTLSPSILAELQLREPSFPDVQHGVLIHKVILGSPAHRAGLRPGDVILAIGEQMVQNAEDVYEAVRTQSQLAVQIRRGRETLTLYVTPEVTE

[9] = target: T5, HTRA4, P83105
T5 sequence (P83105 378-476, limits assumed, looked up): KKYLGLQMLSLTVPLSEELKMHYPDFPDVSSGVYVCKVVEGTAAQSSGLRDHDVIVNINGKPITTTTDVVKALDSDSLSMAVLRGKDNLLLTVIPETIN

[10] = target: IL16_3, Q14005
Chain of IL16_3, Q14005 (Q14005 1107-1207): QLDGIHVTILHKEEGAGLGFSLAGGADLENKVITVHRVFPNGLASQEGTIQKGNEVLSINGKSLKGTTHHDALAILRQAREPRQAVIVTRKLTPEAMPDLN

[11] = target: Inadl_1, Q8NI35
Chain of Inadl_1, Q8NI35 (Q8NI35 113-229): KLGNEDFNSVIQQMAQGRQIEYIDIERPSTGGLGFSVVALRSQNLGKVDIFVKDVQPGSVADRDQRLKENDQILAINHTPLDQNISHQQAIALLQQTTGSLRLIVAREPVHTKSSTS

[12] = target: Inadl_4, Q8NI35
Chain of Inadl_4, Q8NI35 (Q8NI35 547-651): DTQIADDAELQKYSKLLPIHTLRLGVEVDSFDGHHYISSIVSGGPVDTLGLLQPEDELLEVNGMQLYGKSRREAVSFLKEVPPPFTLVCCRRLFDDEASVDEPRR

[13] = target: Inadl_5, Q8NI35
Chain of Inadl_5, Q8NI35 (Q8NI35 673-780): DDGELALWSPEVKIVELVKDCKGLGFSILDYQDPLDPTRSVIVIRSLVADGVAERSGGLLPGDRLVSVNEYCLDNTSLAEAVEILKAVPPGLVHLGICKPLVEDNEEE

[14] = target: Inadl_6, Q8NI35
Chain of Inadl_6, Q8NI35 (Q8NI35 1058-1167): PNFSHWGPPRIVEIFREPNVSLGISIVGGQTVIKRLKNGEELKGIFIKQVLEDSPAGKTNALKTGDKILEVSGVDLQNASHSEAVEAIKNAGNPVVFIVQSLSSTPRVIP

[15] = target: LAP2, Q96RT1
Chain of LAP2, Q96RT1 (Q96RT1 other isoform, or with tags, fused parts or gaps): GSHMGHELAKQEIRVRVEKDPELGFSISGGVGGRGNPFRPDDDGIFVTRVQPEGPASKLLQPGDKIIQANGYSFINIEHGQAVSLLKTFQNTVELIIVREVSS

[16] = target: T6, LIN7C, Q9NUP9
T6 sequence (Q9NUP9 88-185, limits assumed, looked up): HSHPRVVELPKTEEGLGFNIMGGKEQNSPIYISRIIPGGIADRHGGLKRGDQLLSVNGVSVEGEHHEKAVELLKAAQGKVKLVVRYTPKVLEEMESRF

[17] = target: MAGI2_2, Q86UL8
Chain of MAGI2_2, Q86UL8 (Q86UL8 410-522): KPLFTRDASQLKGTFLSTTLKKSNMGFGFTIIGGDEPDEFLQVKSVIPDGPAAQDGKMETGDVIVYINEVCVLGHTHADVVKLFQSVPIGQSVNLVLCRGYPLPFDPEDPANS

[18] = target: MAGI2_5, Q86UL8
Chain of MAGI2_5, Q86UL8 (Q86UL8 915-1017): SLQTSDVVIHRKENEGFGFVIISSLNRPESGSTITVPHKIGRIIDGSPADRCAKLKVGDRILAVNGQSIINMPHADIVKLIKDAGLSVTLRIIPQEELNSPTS

[19] = target: MAST1, Q9Y2H9
Chain of MAST1, Q9Y2H9 (Q9Y2H9 962-1065): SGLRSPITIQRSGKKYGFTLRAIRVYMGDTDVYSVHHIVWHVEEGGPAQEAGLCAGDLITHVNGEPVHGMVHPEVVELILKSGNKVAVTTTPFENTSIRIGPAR

[20] = target: T7, MPP7, Q5T2T1
T7 sequence (Q5T2T1 134-230, limits assumed, looked up): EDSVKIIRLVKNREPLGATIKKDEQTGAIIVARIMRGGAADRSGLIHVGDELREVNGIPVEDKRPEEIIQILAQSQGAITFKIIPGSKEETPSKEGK

[21] = target: NOS1, P29475
Chain of NOS1, P29475 (P29475 9-101): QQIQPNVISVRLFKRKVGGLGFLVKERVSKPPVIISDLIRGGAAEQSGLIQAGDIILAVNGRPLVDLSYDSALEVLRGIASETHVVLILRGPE

[22] = target: T8, PDZD2_2, O15018
T8 sequence (O15018 329-429, limits assumed, looked up): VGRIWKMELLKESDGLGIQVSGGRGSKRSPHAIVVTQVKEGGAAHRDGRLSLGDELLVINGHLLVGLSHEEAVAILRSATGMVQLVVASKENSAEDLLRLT

[23] = target: PICK1, Q9NRD5
Chain of PICK1, Q9NRD5 (Q9NRD5 17-115): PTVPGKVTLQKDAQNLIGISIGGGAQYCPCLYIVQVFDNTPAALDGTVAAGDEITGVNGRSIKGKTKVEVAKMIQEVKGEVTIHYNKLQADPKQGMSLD

[24] = target: T9, PTPN13_1, Q12923
T9 sequence (Q12923 1088-1188, limits assumed, looked up): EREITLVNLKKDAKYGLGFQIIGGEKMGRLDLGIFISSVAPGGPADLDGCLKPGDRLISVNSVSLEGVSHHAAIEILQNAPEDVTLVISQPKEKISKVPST

[25] = target: T10, RADIL, Q96JH8
T10 sequence (Q96JH8 971-1071, limits assumed, looked up): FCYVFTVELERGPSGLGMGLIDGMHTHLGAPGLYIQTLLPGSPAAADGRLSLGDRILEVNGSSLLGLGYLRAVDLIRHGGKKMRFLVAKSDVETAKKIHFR

[26] = target: SCRIB_3, Q14160
Chain of SCRIB_3, Q14160 (Q14160 999-1103): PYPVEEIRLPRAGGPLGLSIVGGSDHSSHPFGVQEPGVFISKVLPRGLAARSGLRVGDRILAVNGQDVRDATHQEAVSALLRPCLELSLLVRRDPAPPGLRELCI

[27] = target: T11, TX1BP3, O14907
T11 sequence (O14907 10-122, limits assumed, looked up): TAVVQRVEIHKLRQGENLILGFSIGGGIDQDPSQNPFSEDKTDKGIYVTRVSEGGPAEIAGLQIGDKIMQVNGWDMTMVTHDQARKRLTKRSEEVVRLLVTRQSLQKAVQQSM

| Binder | pKd [1] | pKd [2] | pKd [3] | pKd [4] | pKd [5] | pKd [6] | pKd [7] | pKd [8] | pKd [9] | pKd [10] | pKd [11] | pKd [12] | pKd [13] | pKd [14] | pKd [15] | pKd [16] | pKd [17] | pKd [18] | pKd [19] | pKd [20] | other results |
| --- | --- | --- | --- | --- | --- | --- | --- | --- | --- | --- | --- | --- | --- | --- | --- | --- | --- | --- | --- | --- | --- |
| HLRQQGSVEV [EPHB6, O15197] | below the threshold | below the threshold | below the threshold | below the threshold | below the threshold | below the threshold | below the threshold | below the threshold | 4.39 | below the threshold | below the threshold | below the threshold | below the threshold | below the threshold | below the threshold | below the threshold | below the threshold | below the threshold | below the threshold | below the threshold | pKd [21]: 3.88; pKd [22]: below the threshold; pKd [23]: below the threshold; pKd [24]: below the threshold; pKd [25]: 3.74; pKd [26]: below the threshold; pKd [27]: 3.85 |
| TGLWKSETTV [ADGRA2, Q96PE1] | below the threshold | 3.88 | 5.07 | 4.47 | 4.47 | below the threshold | below the threshold | below the threshold | below the threshold | below the threshold | below the threshold | below the threshold | below the threshold | below the threshold | 3.7 | 4.29 | 5.37 | 4.12 | 4.68 | below the threshold | pKd [21]: 3.56; pKd [22]: 3.81; pKd [23]: below the threshold; pKd [24]: below the threshold; pKd [25]: 3.95; pKd [26]: 4.4; pKd [27]: 4.87 |
| FTLPAESSEI [PLEKHG7, Q6ZR37] | below the threshold | 3.63 | 4.19 | below the threshold | below the threshold | below the threshold | below the threshold | below the threshold | 3.5 | below the threshold | below the threshold | below the threshold | below the threshold | below the threshold | below the threshold | below the threshold | below the threshold | below the threshold | 4.53 | below the threshold | pKd [21]: below the threshold; pKd [22]: 5.12; pKd [23]: 3.99; pKd [24]: below the threshold; pKd [25]: below the threshold; pKd [26]: 3.86; pKd [27]: below the threshold |
| EWTDERQSKV [GAB3, Q8WWW8] | 3.75 | below the threshold | below the threshold | 3.9 | below the threshold | 3.55 | below the threshold | below the threshold | below the threshold | below the threshold | below the threshold | below the threshold | below the threshold | below the threshold | 3.56 | below the threshold | below the threshold | 3.95 | below the threshold | below the threshold | pKd [21]: below the threshold; pKd [22]: 5.23; pKd [23]: below the threshold; pKd [24]: below the threshold; pKd [25]: 3.61; pKd [26]: below the threshold; pKd [27]: 3.72 |
